Laboratory results from patent publication US20070207960.

Target: full-length, relipidated human tissue factor (UniProt P13726)
Sequence (P13726 33-295): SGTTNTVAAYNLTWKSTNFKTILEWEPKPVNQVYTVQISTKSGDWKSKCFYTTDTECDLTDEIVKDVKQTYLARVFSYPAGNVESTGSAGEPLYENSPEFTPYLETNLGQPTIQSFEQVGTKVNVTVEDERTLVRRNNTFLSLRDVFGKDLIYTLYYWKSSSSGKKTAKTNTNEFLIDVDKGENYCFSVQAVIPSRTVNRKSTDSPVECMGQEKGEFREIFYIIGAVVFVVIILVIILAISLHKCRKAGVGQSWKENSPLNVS

## rFVIIa(K62E)-FFR
  prolongation of the clotting time of human and rabbit plasma (FIG. 6): rFVIIa(K62E)-FFR is a superior inhibitor of coagulation versus both rFVIIa(wt)-FFR and pdFVIIa-FFR at molar ratios of inhibitor:plasma FVII as low as 0.25:1 in both human and rabbit plasma
